Test results taken from the domain aggregation screens of Martell et al. (2025).

experiment: soluble fraction after stress (log2 fold change); higher = more stays soluble; pooled small domains, quantitative proteomics; conditions: stress: pH 4
Summary of the method: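 After pH 4 stress, pooled custom libraries of small protein domains were quantified with high-throughput quantitative proteomics. Aggregation propensity is taken from the fold change in each domain's soluble amount following the acid stress. The scale is log2, where higher values mean more stayed soluble.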

| Sequence | soluble fraction (log2) |
| --- | --- |
| HMNKITIDQAKEIALNHAKLTAEQVSFIRTESEFDDGIEKYNIEFYYNNQKYDYDINAVNGQIIQYDLEG | -0.23 |
| HMTPTPQQNNILVGQTGTTLTRLAPMGKVRVGEVTAEAKTIDGYINPRQSVEVIGFENTVVIVRAV | 0.22 |
| HMGVDMAPESIVGKKGVAATELRPAGKVEIHGQVYDAVSVGMFIKRGTGVKVVRYEAAQIYVEPE | -0.112 |
| HMEPSAQEIANKLLGHVKSLGLPITGLSISYNSTSDLATVRGQVQSQADREKIILAVGNVDHVAKVDDQLT | -0.0387 |
| HMRDQAIDIYKTVHSVAEPYKEVFLLRVLGELSFKEISHIFGKSESWAKVTFFRAKIKVVEKREES | -1.04 |
| HMKHYMKITDISLQTRDKNRVNVSVDGKYRFSLDVFQVGELGLKVGREYTDEELTALEDESQFG | 0.0815 |
| HMAEPLEIGDTVRIIDGFYGGEIGVISELVNPDAKNAEFEQVRVRLDQDTELALPIHNVERVRL | -0.0894 |
| HMSSADIPFSRFIDDVEAQRVEKVTIDGVNVTGRYRSDGAAFKTIIPSQYDGLVPILRQNKVDITVKDA | 0.41 |
| HMSFNLSETKKLILEEIQKGVSSVTQIAATAGISKGMTYNHLRELKLMGYIADGDSGYVITDAGKIAS | -0.323 |
| HMFYPIAHTLTKLNIRSGPGEQYQKLATFENNHDLVVLTQQNEWVQVRGKSDEQVIIGWVHSSFLSPT | -1.33 |
| HMFDGRSDAEKTLDLIKTAIDNILKGGAIQEYKIGTRTAKKYDMAELQVLKGEYAAMVAREKQAETMA | -0.481 |
| HMSKTDYKILYSDLNREDAKQLSLLLEDKKIPYQTSEDGKTIKIPEGMVNRFRMEVATMGVNF | -0.014 |
| HMVEVTTDEITRPGAMVSGSVTFSDGVKAIWLIDEYGRPGLEPETPGYQPSESDLSEFEKHLRALLQ | -0.648 |
| HMNTPAENFDKAVEKYKSTNSATEKDAAFKVIEDEWIKLSDEEKKERQDEYDSIFESEGDRV | 0.22 |
| HMENTVVMPNLLGKTMTEAKIELKDLSISITLKGSENSSQYAAGQIISQSVDSGTRVAVGSSVEVTIAGS | -0.0377 |
| HMEIHIGSLIKEKMEERGLSVSDFAHALHYERTNIYKIFKRSSIDVDLLLRISEVLAYDFLREVYL | -1.9 |
| HMTLNQEELMGKTEAILFAGGEPVSLDRIAQVLGVRTPVIDSIVSALQEKYNTPTSGIQLMRL | -0.467 |
| HMHMNFGEILQTKRKEKGFTQEELAHQLLVSSKTISNWETNKTTPDIDNVIRISQLFDISLNQLLLE | -0.424 |
| HMASIGVGTIVRVANAVNYNGVKVKAWFNDEGYEVTELSGDRAVLKHNGDLFDAFHVSDLEA | -0.771 |
| HMYFGDADGNKKVDAADALYLKRHLADWEDYRELPQKTNVSWMDEASPANLMILERHIAGWKDYEMLPYT | -0.19 |
| HMLLNTSQLKELYNRYDKKNSSLISIPFSAISDEPLKFYKWYAALFQIELNVKAFADVDSKQIIIYKGTK | -0.175 |
| HMSTVAETVYNEIRDDILYGELQPGVKLKLEALRERYSVGVNTLREVLNRLVASGFVFVEGQKGFRVV | -0.377 |
| HMGLSASVIQMFADLGYTSEGRSTKEMITDYQIDHSIIKNSTEDGAGTYGPRTKASLSTVHAQYI | -0.535 |
| HMGNKWALLVVFILNENGSTRFNQLARQIPDISTKVLSNTLQILEADGLVKRTVFPEVPIRVEYELTATGK | -0.987 |
| HMEVDWLEVEKVIVSSSYSWMENSPKVKLLQEYIGVTADGIYGLGTWGAHRTHAVDLGFINLSYPIP | -1.69 |

| Sequence | soluble fraction (log2) |
| --- | --- |
| HMGKTEETLQMEKLVEALRRSGRMKYEDAYRIVYAAFPDAKDFEGMLSGAIRAGFIELQMGNDGAFLRAL | -0.67 |
| HMVPVSIYAYNKIKTAILNNELMPGEKLVEASLAETLNMSRTPIREALRQLEQEGFVTYYPQKGSIVSH | -0.91 |
| HMDDLTTASIKQQLKALIDEENKNKPLSDQKLTDALKAQGIDISRRTVAKYREAMNIPGSSKRKRF | 0.0697 |
| HMRDRYEYLKELRLYLSPLGRTEEDRVIEYYAELIGDKIESGIPENGVLSQLGTPRELADKILAETQEY | -0.384 |
| HMEKDKGTILKEARIKKGLTQEQLANNINYTRQYISKWENNISLPKDIQTLKKISNLLSIPLKELLPEDYL | 0.0442 |
| HMSHYEYKVGDRVNLLDYDDFGILYKEKDNFYNVVVYYNGEFVEVNVKRITLEVAAKELYPEGYDLSTLFV | -2.41 |
| HMTLALKQGSTGSTVKQVQQKLKNWGYYSGAVDGIFGSGTRKAVVLFQKRNKLTADGIVGSKTLEALGIYV | 0.0782 |
| HMAREFPGTIIKRGSRGPDVRWIQQHIGVKLVDGVFGRGTERAVKQFQSRRRLKADGIVGRQTWAAIHN | ≥ 0.43 |
| HMKNVENIILEQLKKNIYDDLNNASFEEIILIDAEKSIYKGTIKANYIEYNFKINLSTGEILKWKLK | -0.763 |
| HMSLIDLLQLNRKSKKLTLMNLVEMTGLSYGKVYRIFNGGIDKPTPDSLKLLAKALQLDYSYLFHKAGYL | 0.266 |
| HMVPAMGSLTLIKGGVNLRNAPGGLTIAQLDRGLVLSYTKFVQKDGYTWYLVNSPKGTGYVRSDVVQLGS | -0.3 |
| HMAAGLTPKQKAFADNYIKNGGNAAEAARAAGYSLKNVGANAGKLLKNPKIAAYIAEKQAELDRRNGT | -0.13 |
| HMSGQKDVPDLYGMTVKQAKKEVEAAGFKLKEGKEVYSNDYSKGQIAEQDPESGSKAKKGSSITVHVSKG | 0.22 |
| HMKAERLLALLTILLSGKRVSARWLSEELEVSERTVYRDVEALSEAGFPVYATTGRDGGFSLIDGF | -1.18 |
| HMNNKSDLLFNHLRQRIATMENGTIFPSVRQLMTEYNVSQSTVSTAIRSLKELGLLEALSRQGMVVRKE | 0.104 |
| HMAPKRIVLRFGKDISDKPIIYYLVKDYDLVINILKANVNPNKEGTLVLELSGENYDKGIEFLISQGVTVQ | -1.33 |
| HMFPSLSPEEQAVVDVLQRNNDLQINMLSVQSGLTISRLTALLFQLEMKGVIKPLAGGMYHLL | -0.493 |
| HMGSQSYVAIVNERFKESDIVELGGSVGSRTGDIITLHFRNSSPNELKNITGIVYLQVANKVTPKL | -0.875 |
| HMERDVNQLTPRERDILKLIAQGLPNKMIARRLDITESTVKVHVKHMLKKMKLKSRVEAAVWVHQERI | 0.0307 |
| HMSDIHARIAAALAALTSPEKIHDLVVDDDGKVSFTFHLTREDPATLVRDARKAVQAVDGVRDVKVNVVDP | 0.00539 |
| HMEATILTATPEAAGQRLDAFLAETLPELTRSAAQRLIAEGQVAVDGKIPTKSLKLAGGETVSVRLPEPE | -0.0707 |
| HMLETHRRRQIILSLLRESGMLDVDEVAARLVVSPNTIRNDFNALAAEGLLRRIRGGATLAEP | -0.171 |
| HMENYGEAITYIHGMIEDSSEKMLAASKALKVNANTLIKFMKDPYSVAAHIRDRIVENLANLEKAVKAI | -0.59 |
| HMSHYDILEVDPKASATEIKQSFRKKSLQYHPDRNKSSDAHEYMTKITEAYNILGDKDKRRHYDMELKL | 0.172 |
| HMHQKYIITGTRDTYVVSQGETLRTIAEHVYGSRGYARYIIEHNHITHPDDIPVGLTIRLPELELNPDYR | -0.209 |

| Sequence | soluble fraction (log2) |
| --- | --- |
| HMKNYYSILGVTPDSSEAEIKSAYRRLARKFHPDVNPDGASRFKDISEAYETLSDAKKRFQYDTINGF | 0.234 |
| HMADVYFDGKFLGETPVTVAVSTTGKPAHEISLIRGGYEPWSTTYQGNPRPGQTATVMAILVHA | -0.121 |
| HMSSFIEAIKQSGTDSLDVIMKNGRVYRYVGIDADRLGYLLEPHQQKLSLEESIGRFYIDYIKGIYEAIE | -1.05 |
| HMEKVDAISQSILDVLKKNNGYLAVTDKSDPDEIYGLFQISKKTFKKAIGSLYRDRLISIEEEGIRLR | -0.237 |
| HMSKPVVWIVGDSTVSAFTDNYYYPRYGWGTQIDKYLDGTFEVKNIALSGRSSTSYTADKEYGELIAG | 0.0502 |
| HMRSREGVRWIIRERIMEELQERHHMDDGELLEMIDRSIGEMGQEIFLPLKERIWLRGSLFDSFR | -1.44 |
| HMSRRIEIELTSSRPDGSWTWRAAGAREPKGVLDGTLLSQGSKPGDVVKAEAEFDIDGITIVSITQ | 0.0267 |
| HMDLVIALNSRIRVIREPFFGKLGTVIDLPHKLHKMESGTMTRVAKIKFDDRTEEIIPRTNLEVILS | -0.35 |
| HMARLEELSNGSIVEGLLSGEAVTVVSTKWYGSSSMEVFYKTNRGSTGSQILYREDEPSLTVLEKS | -0.425 |
| HMEEKTMNLPPSAKLVYKILSYEGNLTQKEIINMTYLPERTVRHALELLLGKRLITRQAYLNDARQSVYG | -0.265 |
| HMGKDLLGYEVFAESGDLVGILKDVMWLPHSDVYVITKGGKEFLIPVIPEVVKGINHEQGVIVISPMEGLL | -0.572 |
| HMDTTLFGLFQNVILTQEDYEELSRTIVEDLDGLIDRLSAYMTSTGKTYKNHKATLLSWYLQDEKKFK | -1.49 |
| HMVVEDDTVLQAVKQAIEENPEAVSDYFEGKSKALNFLVGQVMRITRGKADPAKTNQMVVEELKNR | 0.112 |
| HMTKYREVLRMSAGGFSQRVIASTLSISRNTVASTLKRAREQNLDWEAVEQQRLSEKDIANLLFP | 0.293 |
| HMKYSNDFDKVSYSLGLSIASNLISSGVKTLNAEAFNDGLATVFEGRMPEINPDEANKILQNFFEGLQKE | -0.632 |
| HMTSNEKARNAASAERRADIVAAARELYEEQGLSKTSVQDITNRMGVARSLFYHYFPDKEAVTSAVLDDYV | -0.102 |
| HMDIVGAINKIESMKQDRYLAMHPYSITHSADGYYRTYLPADDGKRKQIKKKSKSDLEKVVIDYWTKRS | ≥ 0.43 |
| HMSTQYKTGHYKTTDALNLRASYSTSSNVLLTIPKGKTIVVTRVHNNEWGQVEYNGKTGWIYLEYTAYTES | -0.387 |
| HMEKGLQYRRTDRAIMNAFIKLVNQGSFEKLTVQEILDEALVSRNTFYAHYRDIYDLMDALSN | -1.37 |
| HMTDAELDLLTPREQEVLQLIARGYLYKEIARRLGISVKTVEAHASSVLRKLQLSTRHELSHWAAQRH | -0.192 |
| HMNPLSELSFEERRELFLEAAVRLFEEKGYKNTSVEDIAGELGFTKKVFYYYWKNKREIVQEIHDRGMA | -0.986 |
| HMEKGIVSNKTDKGYGFIRSSTGESIFVHINNVGKEAYEQLAKGSRVLFDYEVTDRGKRATKVMLEPSES | -0.401 |
| HMHKTEIKIPSREDILAVLRQAQAPLTREQVFEHLKLTEDQIPIIEKRLNAMERDGQLMPNRKGMLLLSTK | 0.00265 |
| HMPASVSAIRKYLGGGSFKGVGPALAKRIVDAFGEYTIETIENDPKQLAKVKGVSEKMALEINTQ | 0.112 |
